Experimental data: patent US20220089647A1 (FUJIFILM, published 2022)
Starred links: 1 amine or outer side, 2 acyl side, 3 side chain; linkers in the order of their positions; H or OH if unused. Positions of bridges follow the written chain, without caps; N, C: chain ends. Non-standard residues stand in square brackets, D forms with d. Primed or numbered codes have the meaning given here. No end group written: not given here. Dab(acetyl)″ = 2-amino-4-(acetylamino)butanoic acid, acetyl CH3 carbon bonded to the S of Hcy (S-CH2-C(=O)-NH-), O=C(C[*:3])NCC[C@H](N[*:1])C(=O)[*:2]; Dab(acetyl) = 2-amino-4-acetylamino-butanoic acid residue (N-γ-acetyl-diaminobutyric acid), CC(=O)NCC[C@H](N[*:1])C(=O)[*:2]; Dab(acetyl)(3) = 2-amino-4-(acetylamino)butanoic acid (Dab with N-γ-acetyl), CC(=O)NCC[C@H](N[*:1])C(=O)[*:2]; COCH2 = acetyl group that carries the bridge; hCys = N[C@@H](CCS)C(=O)O; Dab = NCC[C@H](N)C(=O)O

B1: Cyclic peptide 54 (peptide)
peptide: KKKG[hCys]IPRGDTFR[Dab(acetyl)″]A
modifications: thioether 5-14
B2: Cyclic peptide 1 (peptide)
peptide: KKKG[hCys]IPRGDNFR[Dab(acetyl)(3)]A
modifications: thioether 5-14
B3: Cyclic peptide 2 (peptide)
peptide: KKKA[hCys]IPRGDNFR[Dab](COCH2)A
modifications: thioether 5-14
B4: Cyclic peptide 27 (peptide)
peptide: KKKG[hCys]LPRGDNFR[Dab](COCH2)A
modifications: thioether 5-14
B5: Cyclic peptide 55 (peptide)
peptide: KKKG[hCys]IPRGDTFR[Dab(acetyl)″]G
modifications: thioether 5-14
B6: Cyclic peptide 56 (peptide)
peptide: KKKA[hCys]IPRGDTFR[Dab(acetyl)″]A
modifications: thioether 5-14
B7: Cyclic peptide 69 (peptide)
peptide: KKKGXEPRGDTFRXA
modifications: not fully specified; KKKG-(Hcy)-EPRGDTFR(Dab(acetyl))A; thioether bond Hcy-Dab(acetyl)
B8: Cyclic peptide 70 (peptide)
peptide: KKKGXVPRGDTFRXA
modifications: not fully specified; KKKG-(Hcy)-VPRGDTFR(Dab(acetyl))A; thioether bond Hcy-Dab(acetyl)
B9: Cyclic peptide 71 (peptide)
peptide: KKKGXLPRGDTFRXA
modifications: not fully specified; KKKG-(Hcy)-LPRGDTFR(Dab(acetyl))A; thioether bond Hcy-Dab(acetyl)
B10: Cyclic peptide 74 (peptide)
peptide: KKKAXVPRGDTFRXA
modifications: not fully specified; KKKA-(Hcy)-VPRGDTFR(Dab(acetyl))A; thioether bond Hcy-Dab(acetyl)
B11: Cyclic peptide 75 (peptide)
peptide: KKKAXTPRGDTFRXA
modifications: not fully specified; KKKA-(Hcy)-TPRGDTFR(Dab(acetyl))A; thioether bond Hcy-Dab(acetyl)
B12: Cyclic peptide 77 (peptide)
peptide: KKKAXISRGDTFRXA
modifications: not fully specified; KKKA-(Hcy)-ISRGDTFR(Dab(acetyl))A; thioether bond Hcy-Dab(acetyl)
B13: Cyclic peptide 78 (peptide)
peptide: KKKAXIPRGDVFRXA
modifications: not fully specified; KKKA-(Hcy)-IPRGDVFR(Dab(acetyl))A; thioether bond Hcy-Dab(acetyl)
B14: Cyclic peptide 83 (peptide)
peptide: KKKAXIPRGDTFSXA
modifications: not fully specified; KKKA-(Hcy)-IPRGDTFS(Dab(acetyl))A; thioether bond Hcy-Dab(acetyl)
B15: Cyclic peptide 84 (peptide)
peptide: KKKGXIPRGDTFAXG
modifications: not fully specified; KKKG-(Hcy)-IPRGDTFA(Dab(acetyl))G; thioether bond Hcy-Dab(acetyl)
B16: Cyclic peptide 85 (peptide)
peptide: KKKAXIPRGDTFAXG
modifications: not fully specified; KKKA-(Hcy)-IPRGDTFA(Dab(acetyl))G; thioether bond Hcy-Dab(acetyl)
B17: Cyclic peptide 86 (peptide)
peptide: KKKG[hCys]IPRGDTFA[Dab(acetyl)]A
modifications: thioether 5-14
B18: Cyclic peptide 87 (peptide)
peptide: KKKA[hCys]IPRGDTFA[Dab(acetyl)]A
modifications: thioether 5-14
B19: Cyclic peptide 88 (peptide)
peptide: KKKA[hCys]IPRGDTFG[Dab(acetyl)]A
modifications: thioether 5-14
B20: Cyclic peptide 89 (peptide)
peptide: KKKA[hCys]VTRGDTFR[Dab(acetyl)]A
modifications: thioether 5-14
B21: Cyclic peptide 90 (peptide)
peptide: KKKA[hCys]IPRGDAFA[Dab(acetyl)]A
modifications: thioether 5-14
B22: Cyclic peptide 91 (peptide)
peptide: KKKA[hCys]VPRGDAFA[Dab(acetyl)]A
modifications: thioether 5-14
B23: Cyclic peptide 92 (peptide)
peptide: KKKA[hCys]IPRGDSFA[Dab(acetyl)]A
modifications: thioether 5-14
B24: Cyclic peptide 93 (peptide)
peptide: KKKA[hCys]IPRGDSFA[Dab(acetyl)]G
modifications: thioether 5-14
B25: Cyclic peptide 94 (peptide)
peptide: KKKG[hCys]IPRGDSFA[Dab(acetyl)]A
modifications: thioether 5-14
B26: Cyclic peptide 95 (peptide)
peptide: KKKG[hCys]IPRGDSFA[Dab(acetyl)]G
modifications: thioether 5-14
B27: Cyclic peptide 96 (peptide)
peptide: KKKA[hCys]VPRGDSFA[Dab(acetyl)]A
modifications: thioether 5-14
B28: Cyclic peptide 97 (peptide)
peptide: KKKA[hCys]VPRGDSFA[Dab(acetyl)]G
modifications: thioether 5-14
B29: Cyclic peptide 98 (peptide)
peptide: KKKG[hCys]VPRGDSFA[Dab(acetyl)]A
modifications: thioether 5-14
B30: Cyclic peptide 99 (peptide)
peptide: KKKG[hCys]VPRGDSFA[Dab(acetyl)]G
modifications: thioether 5-14
B31: Cyclic peptide 105 (peptide)
peptide: KKKG[hCys]VPRGDTFA[Dab(acetyl)″]G
modifications: thioether 5-14
B32: Cyclic peptide 106 (peptide)
peptide: KKKG[hCys]VPRGDTFA[Dab(acetyl)″]A
modifications: thioether 5-14
B33: Cyclic peptide 107 (peptide)
peptide: KKKA[hCys]VPRGDTFA[Dab(acetyl)″]G
modifications: thioether 5-14
B34: Cyclic peptide 108 (peptide)
peptide: KKKA[hCys]VPRGDTFA[Dab(acetyl)″]A
modifications: thioether 5-14
B35: Cyclic peptide 122 (peptide)
peptide: KKKAXVPRGDTFAXA
modifications: not fully specified; KKKA(Dab(acetyl))VPRGDTFA-(Hcy)-A; thioether bond Dab(acetyl)-Hcy
B36: Cyclic peptide 136 (peptide)
peptide: KKKAXVPRGDTFAXA
modifications: not fully specified; KKKA(Dab(acetyl))VPRGDTFA-(Pen)-A; thioether bond Dab(acetyl)-Pen
B37: Cyclic peptide 60 (peptide)
peptide: KKK[hCys]IPRGDTF[Dab(acetyl)″]A
modifications: thioether 4-12
B38: Cyclic peptide 100 (peptide)
peptide: A[hCys]IPRGDSFA[Dab(acetyl)″]AKKK
modifications: thioether 2-11
B39: Cyclic peptide 104 (peptide)
peptide: KKK[hCys]VPRGDTFA[Dab(acetyl)″]
modifications: thioether 4-13
B40: Cyclic peptide 11 (peptide)
peptide: KKK[hCys]IPRGDNFR[Dab(acetyl)(3)]
modifications: thioether 4-13
B41: Cyclic peptide 61 (peptide)
peptide: KKK[hCys]IPRGDTFR[Dab(acetyl)″]
modifications: thioether 4-13
B42: Cyclic peptide 62 (peptide)
peptide: KKK[hCys]IPRGDTFA[Dab(acetyl)″]
modifications: thioether 4-13
B43: Cyclic peptide 101 (peptide)
peptide: KKK[hCys]IPRGDSFA[Dab(acetyl)″]
modifications: thioether 4-13
B44: Cyclic peptide 102 (peptide)
peptide: KKK[hCys]VPRGDSFA[Dab(acetyl)″]
modifications: thioether 4-13
B45: Cyclic peptide 103 (peptide)
peptide: [hCys]VPRGDTFA[Dab(acetyl)″]KKK
modifications: thioether 1-10
B46: Cyclic peptide 109 (peptide)
peptide: A[hCys]VPRGDTFA[Dab(acetyl)″]AKKK
modifications: thioether 2-11
B47: Cyclic peptide 110 (peptide)
peptide: KKKKA[hCys]VPRGDTFA[Dab(acetyl)(3)]A
modifications: thioether 6-15
B48: Cyclic peptide 111 (peptide)
peptide: KKKKKA[hCys]VPRGDTFA[Dab(acetyl)″]A
modifications: thioether 7-16
B49: Cyclic peptide 112 (peptide)
peptide: KKKKKKA[hCys]VPRGDTFA[Dab(acetyl)″]A
modifications: thioether 8-17

molecular target: T1, human integrin αvβ5 (human, UniProt P06756 31-992; P18084 24-719, limits assumed); experiment: SPR, Biacore 3000, peptide immobilised; A = KD 50 nM or less
T1 construct: Heterodimer flowed as analyte at 30, 100, 300 and 1,000 nM in HEPES buffer with 5 mM MgCl2
Procedure: However, only for the cyclic peptides 125, 126, and 127, in which the number of lysine residues having an amino group as the immobilizing functional group was zero, the amount of the sample solution to be supplied to the sensor chip was set to 500 μL instead of 20 μL. Further, 70 μL of the mixed aqueous solution of 0.2 M EDC and 0.04 M NHS was added to another flow channel of the same sensor chip without immobilizing the sample, and then blocking treatment and washing treatment were carried out. Hereinafter, the obtained immobilization-treated sensor chip is referred to as an “immobilization-treated sensor chip A”.
After adding human integrin αvβ5 for 10 minutes at 25° C., which was diluted to 30 nM using a HEPES buffer solution to which magnesium chloride was added to 5 mM, in each flow channel of the immobilization-treated sensor chip A prepared in (1) above, the same HEPES buffer solution (containing 5 mM magnesium chloride) was allowed to flow as a running buffer for 30 minutes, and measurement was carried out with Biacore 3000. Then, a regeneration treatment of removing human integrin αvβ5 was carried out by allowing a 0.5 M EDTA aqueous solution to flow through each flow channel for 10 minutes. Further, the above-described measurement process consisting of adding integrin for 10 minutes, allowing a running buffer to flow for 30 minutes, carrying out measurement with Biacore 3000, and carrying out regeneration treatment with 0.5 M EDTA aqueous solution was carried out in the same manner for 100 nM human integrin αvβ5, 300 nM human integrin αvβ5, and 1,000 nM human integrin αvβ5. Dissociation constant between the cyclic peptide and human integrin αvβ5 was calculated from the difference between the value measured by Biacore 3000 in the flow channel immobilized with the cyclic peptide and the value measured by Biacore 3000 in the flow channel unimmobilized with the cyclic peptide, in a case where each concentration of human integrin αvβ5 was allowed to flow, and the integrin binding property was evaluated according to the following evaluation standards. It is preferable that the evaluation result satisfies the evaluation standard A, B, or C.

T1 sequence (P06756 31-992 limits assumed, chain 1 of 2): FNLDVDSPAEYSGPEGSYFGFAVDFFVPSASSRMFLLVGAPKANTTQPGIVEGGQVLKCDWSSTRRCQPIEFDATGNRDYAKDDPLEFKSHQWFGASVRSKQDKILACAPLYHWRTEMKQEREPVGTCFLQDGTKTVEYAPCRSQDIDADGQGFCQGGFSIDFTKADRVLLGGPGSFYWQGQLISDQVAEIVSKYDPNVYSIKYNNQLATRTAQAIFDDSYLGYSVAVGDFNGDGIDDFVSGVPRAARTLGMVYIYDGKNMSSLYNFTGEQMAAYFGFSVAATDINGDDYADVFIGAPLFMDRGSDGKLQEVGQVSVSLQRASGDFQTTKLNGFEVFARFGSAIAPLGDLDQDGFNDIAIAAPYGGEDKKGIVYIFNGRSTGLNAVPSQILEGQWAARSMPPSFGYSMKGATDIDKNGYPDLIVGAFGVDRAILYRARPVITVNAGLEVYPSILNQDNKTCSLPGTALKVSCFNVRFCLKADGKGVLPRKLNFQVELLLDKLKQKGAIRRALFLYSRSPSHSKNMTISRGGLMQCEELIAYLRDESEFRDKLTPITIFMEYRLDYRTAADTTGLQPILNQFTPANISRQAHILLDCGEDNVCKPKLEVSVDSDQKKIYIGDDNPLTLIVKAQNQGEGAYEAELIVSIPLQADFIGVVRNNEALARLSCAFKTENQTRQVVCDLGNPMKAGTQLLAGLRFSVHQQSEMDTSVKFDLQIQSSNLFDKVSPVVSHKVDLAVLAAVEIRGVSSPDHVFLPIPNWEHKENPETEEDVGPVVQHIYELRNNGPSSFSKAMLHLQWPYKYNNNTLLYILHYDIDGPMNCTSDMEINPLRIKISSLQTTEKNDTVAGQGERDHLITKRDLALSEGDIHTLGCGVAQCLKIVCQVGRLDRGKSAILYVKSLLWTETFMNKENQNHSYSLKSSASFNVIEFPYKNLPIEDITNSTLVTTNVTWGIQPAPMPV
T1 sequence (P18084 24-719 limits assumed, chain 2 of 2): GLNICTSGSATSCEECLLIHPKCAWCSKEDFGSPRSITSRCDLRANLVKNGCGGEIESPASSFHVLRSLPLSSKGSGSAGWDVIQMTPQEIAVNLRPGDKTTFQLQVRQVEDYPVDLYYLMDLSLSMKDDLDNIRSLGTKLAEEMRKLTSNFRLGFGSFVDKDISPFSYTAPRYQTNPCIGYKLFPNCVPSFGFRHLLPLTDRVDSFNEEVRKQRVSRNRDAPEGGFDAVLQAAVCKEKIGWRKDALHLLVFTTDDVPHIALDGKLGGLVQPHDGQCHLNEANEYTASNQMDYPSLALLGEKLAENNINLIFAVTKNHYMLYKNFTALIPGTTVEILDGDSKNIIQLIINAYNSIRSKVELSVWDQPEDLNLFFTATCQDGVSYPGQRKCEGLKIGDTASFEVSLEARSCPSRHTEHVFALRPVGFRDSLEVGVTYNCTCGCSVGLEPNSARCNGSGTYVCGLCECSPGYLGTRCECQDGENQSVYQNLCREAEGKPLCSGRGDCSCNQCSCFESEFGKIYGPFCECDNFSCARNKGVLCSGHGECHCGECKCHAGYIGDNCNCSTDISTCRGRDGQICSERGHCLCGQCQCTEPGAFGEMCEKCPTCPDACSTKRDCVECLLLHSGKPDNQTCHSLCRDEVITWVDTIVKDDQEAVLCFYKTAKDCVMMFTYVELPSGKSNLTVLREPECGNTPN

| Binder | dissociation constant (KD) [nM] | dissociation constant [nM] |
| --- | --- | --- |
| B1 | ≤ 50 | – |
| B2 | ≤ 50 | – |
| B3 | ≤ 50 | – |
| B4 | ≤ 50 | – |
| B5 | ≤ 50 | – |
| B6 | ≤ 50 | – |
| B7 | – | ≤ 50 |
| B8 | – | ≤ 50 |
| B9 | – | ≤ 50 |
| B10 | – | ≤ 50 |
| B11 | – | ≤ 50 |
| B12 | – | ≤ 50 |
| B13 | – | ≤ 50 |
| B14 | – | ≤ 50 |
| B15 | – | ≤ 50 |
| B16 | – | ≤ 50 |
| B17 | – | ≤ 50 |
| B18 | – | ≤ 50 |
| B19 | – | ≤ 50 |
| B20 | – | ≤ 50 |
| B21 | – | ≤ 50 |
| B22 | – | ≤ 50 |
| B23 | – | ≤ 50 |
| B24 | – | ≤ 50 |
| B25 | – | ≤ 50 |

| Binder | dissociation constant (KD) [nM] | dissociation constant [nM] |
| --- | --- | --- |
| B26 | – | ≤ 50 |
| B27 | – | ≤ 50 |
| B28 | – | ≤ 50 |
| B29 | – | ≤ 50 |
| B30 | – | ≤ 50 |
| B31 | – | ≤ 50 |
| B32 | – | ≤ 50 |
| B33 | – | ≤ 50 |
| B34 | – | ≤ 50 |
| B35 | – | ≤ 50 |
| B36 | – | ≤ 50 |
| B37 | ≤ 50 | – |
| B38 | – | ≤ 50 |
| B39 | – | ≤ 50 |
| B40 | ≤ 50 | – |
| B41 | – | ≤ 50 |
| B42 | – | ≤ 50 |
| B43 | – | ≤ 50 |
| B44 | – | ≤ 50 |
| B45 | – | ≤ 50 |
| B46 | – | ≤ 50 |
| B47 | – | ≤ 50 |
| B48 | – | ≤ 50 |
| B49 | – | ≤ 50 |
